Measurements reported in paper PMC6310021 (2018).

Molecular target: Metallothionein-2 (UniProt P02795)
Test: SPR

Chain of Metallothionein-2 (P02795 whole entry): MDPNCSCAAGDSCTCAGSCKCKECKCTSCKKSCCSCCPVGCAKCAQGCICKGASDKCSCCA

Kd: 110 nM
B1: Transgelin-2 (protein)
chain: ANRGPAYGLSREVQQKIEKQYDADLEQILIQWITTQCRKDVGRPQPGRENFQNWLKDGTVLCELINALYPEGQAPVKKIQASTMAFKQMEQISQFLQAAERYGINTTDIFQTVDLWEGKNMACVQRTLMNLGGLAVARDDGLFSGDPNWFPKKSKENPRNFSDNQLQEGKNVIGLQMGTNRGASQAGMTGYGMPRQIL
